# B1: Frizzled-4 (Homo sapiens), Q9ULV1 (parent)
# chain: MAWRGAGPSVPGAPGGVGLSLGLLLQLLLLLGPARGFGDEEERRCDPIRISMCQNLGYNVTKMPNLVGHELQTDAELQLTTFTPLIQYGCSSQLQFFLCSVYVPMCTEKINIPIGPCGGMCLSVKRRCEPVLKEFGFAWPESLNCSKFPPQNDHNHMCMEGPGDEEVPLPHKTPIQPGEECHSVGTNSDQYIWVKRSLNCVLKCGYDAGLYSRSAKEFTDIWMAVWASLCFISTAFTVLTFLIDSSRFSYPERPIIFLSMCYNIYSIAYIVRLTVGRERISCDFEEAAEPVLIQEGLKNTGCAIIFLLMYFFGMASSIWWVILTLTWFLAAGLKWGHEAIEMHSSYFHIAAWAIPAVKTIVILIMRLVDADELTGLCYVGNQNLDALTGFVVAPLFTYLVIGTLFIAAGLVALFKIRSNLQKDGTKTDKLERLMVKIGVFSVLYTVPATCVIACYFYEISNWALFRYSADDSNMAVEMLKIFMSLLVGITSGMWIWSAKTLHTWQKCSNRLVNSGKVKREKRGNGWVKPGKGSETVV
# partner: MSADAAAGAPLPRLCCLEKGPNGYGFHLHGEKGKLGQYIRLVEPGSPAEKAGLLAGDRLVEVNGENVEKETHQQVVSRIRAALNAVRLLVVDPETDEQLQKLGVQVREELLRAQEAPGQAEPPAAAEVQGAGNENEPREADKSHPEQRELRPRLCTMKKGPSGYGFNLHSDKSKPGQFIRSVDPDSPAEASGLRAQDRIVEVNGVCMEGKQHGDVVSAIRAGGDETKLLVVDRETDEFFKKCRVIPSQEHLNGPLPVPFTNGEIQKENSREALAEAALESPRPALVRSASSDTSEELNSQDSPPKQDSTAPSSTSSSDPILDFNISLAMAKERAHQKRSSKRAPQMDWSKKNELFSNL
# B2: Frizzled-4 (Homo sapiens), Q9ULV1 (parent)
# chain: B1 chain
# partner: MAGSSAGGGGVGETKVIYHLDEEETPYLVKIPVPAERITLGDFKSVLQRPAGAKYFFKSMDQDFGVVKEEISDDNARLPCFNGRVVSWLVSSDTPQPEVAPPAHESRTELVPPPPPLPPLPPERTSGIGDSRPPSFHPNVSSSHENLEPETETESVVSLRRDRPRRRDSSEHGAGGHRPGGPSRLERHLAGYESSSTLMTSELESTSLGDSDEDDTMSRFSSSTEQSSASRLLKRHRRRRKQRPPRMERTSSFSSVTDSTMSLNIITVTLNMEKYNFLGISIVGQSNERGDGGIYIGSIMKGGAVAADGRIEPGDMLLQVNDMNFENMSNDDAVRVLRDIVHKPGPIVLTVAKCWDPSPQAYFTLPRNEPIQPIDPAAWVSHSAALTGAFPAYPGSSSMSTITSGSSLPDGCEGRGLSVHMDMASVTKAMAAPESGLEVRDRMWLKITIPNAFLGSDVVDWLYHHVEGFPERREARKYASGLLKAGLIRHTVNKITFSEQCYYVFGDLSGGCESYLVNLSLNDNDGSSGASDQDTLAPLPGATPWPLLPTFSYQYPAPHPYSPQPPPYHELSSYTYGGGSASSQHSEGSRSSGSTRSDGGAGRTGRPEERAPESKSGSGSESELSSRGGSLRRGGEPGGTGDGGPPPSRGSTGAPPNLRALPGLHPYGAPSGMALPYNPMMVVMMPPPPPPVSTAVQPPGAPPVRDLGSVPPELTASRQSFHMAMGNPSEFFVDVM
# Variants of: B1
# Settings: with nhrf1_human NHERF1, O14745
row,effect of a mutation on the interaction,Variant
1,decreasing interaction,MAWRGAGPSVPGAPGGVGLSLGLLLQLLLLLGPARGFGDEEERRCDPIRISMCQNLGYNVTKMPNLVGHELQTDAELQLTTFTPLIQYGCSSQLQFFLCSVYVPMCTEKINIPIGPCGGMCLSVKRRCEPVLKEFGFAWPESLNCSKFPPQNDHNHMCMEGPGDEEVPLPHKTPIQPGEECHSVGTNSDQYIWVKRSLNCVLKCGYDAGLYSRSAKEFTDIWMAVWASLCFISTAFTVLTFLIDSSRFSYPERPIIFLSMCYNIYSIAYIVRLTVGRERISCDFEEAAEPVLIQEGLKNTGCAIIFLLMYFFGMASSIWWVILTLTWFLAAGLKWGHEAIEMHSSYFHIAAWAIPAVKTIVILIMRLVDADELTGLCYVGNQNLDALTGFVVAPLFTYLVIGTLFIAAGLVALFKIRSNLQKDGTKTDKLERLMVKIGVFSVLYTVPATCVIACYFYEISNWALFRYSADDSNMAVEMLKIFMSLLVGITSGMWIWSAKTLHTWQKCSNRLVNSGKVKREKRGNGWVKPGKGSETVA [V537A]

# Variants of: B2
# Settings: with dvl2_mouse Dvl2, Q60838
row,effect of a mutation on the interaction,Variant
1,decreasing interaction,MAWRGAGPSVPGAPGGVGLSLGLLLQLLLLLGPARGFGDEEERRCDPIRISMCQNLGYNVTKMPNLVGHELQTDAELQLTTFTPLIQYGCSSQLQFFLCSVYVPMCTEKINIPIGPCGGMCLSVKRRCEPVLKEFGFAWPESLNCSKFPPQNDHNHMCMEGPGDEEVPLPHKTPIQPGEECHSVGTNSDQYIWVKRSLNCVLKCGYDAGLYSRSAKEFTDIWMAVWASLCFISTAFTVLTFLIDSSRFSYPERPIIFLSMCYNIYSIAYIVRLTVGRERISCDFEEAAEPVLIQEGLKNTGCAIIFLLMYFFGMASSIWWVILTLTWFLAAGLKWGHEAIEMHSSYFHIAAWAIPAVKTIVILIMRLVDADELTGLCYVGNQNLDALTGFVVAPLFTYLVIGTLFIAAGLVALFKIRSNLQKDGTKTDKLERLMVKIGVFSVLYTVPATCVIACYFYEISNWALFRYSADDSNMAVEMLKIFMSLLVGITSGMWIWSAKTLHTWQKCSNRLVNSGKVKREKRGNGWVKPGKGSETVA [V537A]

# — IntAct's records for PubMed 20802536
